Laboratory results taken from patent US20190077863A1 (AERPIO PHARMACEUTICALS, published 2019).

Columns and labels:
[1] = biological target: T1, Human VE-PTP (HPTP-β) containing first eight FN3 repeats with C-terminal His6 tag (Human ½ VE-PTP ECD) (human, UniProt P23467 23-820); experiment: ELISA: HPTP-β antigen coated on the plate, antibody serially diluted (10,000 to 9.765 ng/mL), goat anti-human HRP (Fc specific), OD 450 nm
T1 construct: Produced in HEK293 cells and purified by the His tag; it was not cut off; also called Human Beta ½ ECD
T1 sequence: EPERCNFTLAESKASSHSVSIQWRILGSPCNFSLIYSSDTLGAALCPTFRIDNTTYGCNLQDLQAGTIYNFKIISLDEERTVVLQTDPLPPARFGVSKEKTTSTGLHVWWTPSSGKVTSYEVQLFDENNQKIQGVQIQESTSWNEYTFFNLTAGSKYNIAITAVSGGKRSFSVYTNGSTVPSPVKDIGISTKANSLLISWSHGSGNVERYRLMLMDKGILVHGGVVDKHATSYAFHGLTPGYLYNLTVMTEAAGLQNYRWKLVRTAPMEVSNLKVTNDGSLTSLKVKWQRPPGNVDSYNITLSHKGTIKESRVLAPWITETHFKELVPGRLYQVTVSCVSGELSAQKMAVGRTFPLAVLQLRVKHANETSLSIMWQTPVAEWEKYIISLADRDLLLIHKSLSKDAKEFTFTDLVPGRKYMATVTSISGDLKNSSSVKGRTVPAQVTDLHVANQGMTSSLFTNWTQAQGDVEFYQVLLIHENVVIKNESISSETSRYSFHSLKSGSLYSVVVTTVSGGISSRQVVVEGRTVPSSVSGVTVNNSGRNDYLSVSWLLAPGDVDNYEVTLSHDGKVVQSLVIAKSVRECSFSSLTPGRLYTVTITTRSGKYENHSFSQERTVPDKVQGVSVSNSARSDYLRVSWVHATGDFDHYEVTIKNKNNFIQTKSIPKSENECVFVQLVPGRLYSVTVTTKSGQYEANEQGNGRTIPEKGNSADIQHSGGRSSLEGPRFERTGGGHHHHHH
Protocol: (§1) Each humanized variant was measured for affinity to the antigen, human VE-PTP (HPTP-β), using ELISA. […] of the VE-PTP (HPTP-β) antigen were immobilized onto 96-well Maxisorp plates in coating buffer (0.5 mM NaHCO₃ brought to pH 9.6 by the addition of 0.5 mM Na₂CO₃) overnight at 4° C. The coating buffer was then removed and 200 μL/well of block solution (3% w/v semi-skimmed milk powder, PBS) was added and agitated for 2 hrs at room temperature. The plate was washed four times with PBS-T (1% v/v Tween 20). 100 μL/well was added of purified R15E6 variants serially diluted from 10,000 ng/mL to 9.765 ng/mL in PBS-TB (0.05% v/v Tween 20, 0.5% w/v BSA). Following agitation for 2 hrs at room temperature, the plate was washed 4× with PBS-T. 100 μL/well goat anti-human HRP (Fc specific) at a ratio of 1:60,000 PBS was then added and the plates were incubated for an additional hour with agitation at room temperature. The plate was then washed 6× with PBS-T and once in PBS. Next, 100 μL/well of TMB substrate solution was added and incubated at 37° C. for 10 min. 50 μL 1 M HCl was added per well and the plate immediately read at 450 nm on a Tecan Sunrise plate reader. […] The binding of the HC4 variants was much lower than with the other heavy chains variants compared to HC0LC0 (FIG. 17).

[2] = biological target: T1, Human VE-PTP (HPTP-β) containing first …; experiment: ELISA, coated antigen, antibody 10,000 to 9.765 ng/mL
Protocol: as §1

[3] = biological target: T1, Human VE-PTP (HPTP-β) containing first …; experiment: ELISA: HPTP-β antigen coated on the plate, antibody serially diluted, goat anti-human HRP (Fc specific), OD 450 nm
Protocol: as §1

[4] = biological target: T1, Human VE-PTP (HPTP-β) containing first …; experiment: SPR (Biacore 3000), antibody captured on anti-human IgG, antigen as analyte 25-0 nM
Protocol: (§2) Samples of each variant were further assessed by Biacore analysis to determine the binding affinity. Antibody binding experiments were performed on Biacore 3000™ at 25° C. Assay buffer: 10 mM HEPES buffer (pH 7.4), 150 mM NaCl, 3 mM EDTA, 0.05% P20 (polyoxyethylenesorbitan). […] Conjugation buffer: 10 mM sodium acetate buffer (pH 5). The flow rate used for capturing the ligand was 5 μL/min. The flow rate for the kinetic analysis was 50 μL/min. Flow cell 1 and […] of the CM5 chip were coated with maximum amounts of goat anti-human IgG. Approximately 150 RU of the test antibody was captured on flow cell 2, 3, and 4 as indicated. The antigen was flowed over the chip. Binding of the antigen to the antibodies was monitored in real time. The KD was determined from the observed kₒₙ and koff values.

[5] = biological target: T1, Human VE-PTP (HPTP-β) containing first …; experiment: SPR (Biacore 3000), antibody captured on anti-human IgG, antigen as analyte 100 nM (single concentration)
Protocol: as §2
A scouting analysis was performed using single analyte concentrations as indicated. At these concentrations, binding can be observed even if the ligand binding is weak. Flow cell 1 response was used for reference subtraction.

B1: humanized R15E6 variant HC1LC1 (antibody, human IgG4 S228P, kappa, V domains shown)
VH: EVQLVESGGGLVQPGGSLKLSCAASGFTFNANAMNWVRQASGKGLEWVGRIRTKSNNYATYYAGSVKDRFTISRDDSKNTAYLQMNSLKTEDTAAYYCVRDYYGSSAWITYWGQGTLVTVSS
VL: DVVMTQSPSFLSASVGDRVTITCKASQHVGTAVAWYQQRPGKAPKLLIYWASTRHTGVPSRFSGSGSGTEFTLTISSLQPEDFATYFCQQYSSYPFTFGGGTKLEIKR
notes: Human IgG4 (S228P) / kappa, expressed in CHO cells; Signal peptides left out by range; also called VH1-VL1
- binding result [1]: binds

B2: humanized R15E6 variant HC4LC2 (antibody, human IgG4 S228P, kappa, V domains shown)
VH: LVQLVESGGGLVKPGGSLRLSCAASGFTFNANAMNWIRQAPGKGLEWVSRIRTKSNNYATYYAGSVKDRFTISRDNAKNSLYLQMNSLRAEDTAVHYCVRDYYGSSAWITYWGQGTLVTVSS
VL: DIVMTQSPDSLAVSLGERATINCKASQHVGTAVAWYQQKPGQPPKLLIYWASTRHTGVPDRFSGSGSGTDFTLTISSLQAEDVAVYYCQQYSSYPFTFGQGTKLEIKR
notes: Human IgG4 (S228P) / kappa, expressed in CHO cells; Signal peptides left out by range; also called VH4-VL2
- binding result [2]: binds

B3: humanized R15E6 variant HC4LC4 (antibody, human IgG4 S228P, kappa, V domains shown)
VH: LVQLVESGGGLVKPGGSLRLSCAASGFTFNANAMNWIRQAPGKGLEWVSRIRTKSNNYATYYAGSVKDRFTISRDNAKNSLYLQMNSLRAEDTAVHYCVRDYYGSSAWITYWGQGTLVTVSS
VL: DIVMTQSPDSLAVSLGERATINCKASQHVGTAVAWYQQKPEQPPKLLIYWASTRHTGVPDRFSGSGSGTDFTLTISSLQAEDVAVYYCQQYSSYPFTFGGGTKVEIKR
notes: Human IgG4 (S228P) / kappa, expressed in CHO cells; Signal peptides left out by range; also called VH4-VL4
- binding result [2]: binds

B4: humanized R15E6 variant HC1LC3 (antibody, human IgG4 S228P, kappa, V domains shown)
VH: EVQLVESGGGLVQPGGSLKLSCAASGFTFNANAMNWVRQASGKGLEWVGRIRTKSNNYATYYAGSVKDRFTISRDDSKNTAYLQMNSLKTEDTAAYYCVRDYYGSSAWITYWGQGTLVTVSS
VL: DIQMTQSPFSLSASVGDRVTITCKASQHVGTAVAWYQQKPGKAPKLLIYWASTRHTGVPSRFSGSGSGTDFTLTISSLQPEDFATYFCQQYSSYPFTFGGGTKLEIKR
notes: Human IgG4 (S228P) / kappa, expressed in CHO cells; Signal peptides left out by range; also called VH1-VL3
- binding result [1]: binds

B5: humanized R15E6 variant HC3LC3 (antibody, human IgG4 S228P, kappa, V domains shown)
VH: EVQLVESGGGLVQPGRSLRLSCTASGFTFNANAMNWVRQAPGKGLEWVGRIRTKSNNYATYYAGSVKDRFTISRDDSKNIAYLQMNSLKTEDTAVYYCVRDYYGSSAWITYWGQGTLVTVSS
VL: DIQMTQSPFSLSASVGDRVTITCKASQHVGTAVAWYQQKPGKAPKLLIYWASTRHTGVPSRFSGSGSGTDFTLTISSLQPEDFATYFCQQYSSYPFTFGGGTKLEIKR
notes: Human IgG4 (S228P) / kappa, expressed in CHO cells; Signal peptides left out by range; also called VH3-VL3
- binding result [3]: binds

B6: humanized R15E6 variant HC3LC1 (antibody, human IgG4 S228P, kappa, V domains shown)
VH: EVQLVESGGGLVQPGRSLRLSCTASGFTFNANAMNWVRQAPGKGLEWVGRIRTKSNNYATYYAGSVKDRFTISRDDSKNIAYLQMNSLKTEDTAVYYCVRDYYGSSAWITYWGQGTLVTVSS
VL: DVVMTQSPSFLSASVGDRVTITCKASQHVGTAVAWYQQRPGKAPKLLIYWASTRHTGVPSRFSGSGSGTEFTLTISSLQPEDFATYFCQQYSSYPFTFGGGTKLEIKR
notes: Human IgG4 (S228P) / kappa, expressed in CHO cells; Signal peptides left out by range; also called VH3-VL1
- binding result [3]: binds

B7: humanized R15E6 variant HC3LC2 (antibody, human IgG4 S228P, kappa, V domains shown)
VH: EVQLVESGGGLVQPGRSLRLSCTASGFTFNANAMNWVRQAPGKGLEWVGRIRTKSNNYATYYAGSVKDRFTISRDDSKNIAYLQMNSLKTEDTAVYYCVRDYYGSSAWITYWGQGTLVTVSS
VL: DIVMTQSPDSLAVSLGERATINCKASQHVGTAVAWYQQKPGQPPKLLIYWASTRHTGVPDRFSGSGSGTDFTLTISSLQAEDVAVYYCQQYSSYPFTFGQGTKLEIKR
notes: Human IgG4 (S228P) / kappa, expressed in CHO cells; Signal peptides left out by range; also called VH3-VL2
- Ka [4]: 4.3e+07 M⁻¹
- Kd [4]: 0.0232 µM
- koff [4]: 0.00123 s⁻¹
- kon [4]: 53900 M⁻¹ s⁻¹
- Ka [5]: 2.06e+08 M⁻¹
- Kd [5]: 0.00484 µM
- koff [5]: 0.000993 s⁻¹
- kon [5]: 205000 M⁻¹ s⁻¹

B8: humanized R15E6 variant HC4LC1 (antibody, human IgG4 S228P, kappa, V domains shown)
VH: LVQLVESGGGLVKPGGSLRLSCAASGFTFNANAMNWIRQAPGKGLEWVSRIRTKSNNYATYYAGSVKDRFTISRDNAKNSLYLQMNSLRAEDTAVHYCVRDYYGSSAWITYWGQGTLVTVSS
VL: DVVMTQSPSFLSASVGDRVTITCKASQHVGTAVAWYQQRPGKAPKLLIYWASTRHTGVPSRFSGSGSGTEFTLTISSLQPEDFATYFCQQYSSYPFTFGGGTKLEIKR
notes: Human IgG4 (S228P) / kappa, expressed in CHO cells; Signal peptides left out by range; also called VH4-VL1
- binding result [2]: binds
